From paper PMC8073977, “Structural Basis for the C-Terminal Domain of Mycobacterium tuberculosis Ribosome Maturation Factor RimM to Bind Ribosomal Protein S19” (Biomolecules, 2021)
Changes are numbered by the printed parent chain. Numbers in names are those of the source.

B1: C-terminal domain of RimM from Mycobacterium tuberculosis (MtbRimMCTD, residues 101-176), wild type (domain or fragment)
chain: DTYYDHQLVGLMVQTATGEGVGVVTEVVHTAAGELLAVKRDSDEVLVPFVRAIVTSVSLDDGIVEIDPPHGLLNLE
notes: A starting Met stands before D101 (Nde I site); Surmise: pET-22b with Xho I adds Leu-Glu before the His6 tag; Theoretical Mw of the recombinant protein printed as 9.28 kDa; 15N-labelled in the NMR titrations, unlabelled in SPR; also called WT MtbRimMCTD; not shown: His6, C-terminal, kept
B2: MtbRimMCTD E126A (domain or fragment)
chain: B1 chain with E26A
notes: Same limits and tag as m1; not shown: His6, C-terminal, kept
B3: MtbRimMCTD E144A (domain or fragment)
chain: B1 chain with E44A
notes: as for B2
B4: MtbRimMCTD H129A (domain or fragment)
chain: B1 chain with H29A
notes: as for B2
B5: MtbRimMCTD D105A (domain or fragment)
chain: B1 chain with D5A
notes: Same limits and tag as m1; also called MtbRimM D105A; not shown: His6, C-terminal, kept

Molecular target: T1, Ribosomal protein S19 from Mycobacterium tuberculosis (MtbS19, residues 1-93) (Mycobacterium tuberculosis strain H37Rv, UniProt P9WH45 1-93)
T1 construct: 30S ribosomal protein S19, M. tuberculosis H37Rv, residues 1-93; pET-28a with thrombin-cleavable N-terminal His6-tag; Surmise: a few vector residues remain at the N-terminus after thrombin cleavage; In PDB 5V93 residues 84-93 of S19 are absent; not shown: His6, N-terminal, cleaved
T1 sequence (P9WH45 whole entry, the tested form may be a part): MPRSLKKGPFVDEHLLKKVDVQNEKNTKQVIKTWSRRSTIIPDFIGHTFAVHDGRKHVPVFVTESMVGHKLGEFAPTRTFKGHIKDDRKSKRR
Assay: SPR; Biacore T200, 298 K; […]; 20 mM potassium phosphate pH 7.2, 100 mM KCl; […]
Conditions: both partners purified

| Binder | Kd [µM] | binding result |
| --- | --- | --- |
| B1 | 2.16 |  |
| B2 |  | binds |
| B3 |  | binds |
| B4 | 12.7 |  |
| B5 | 7.06 |  |
